# Measurements reported in publication PMC11945409.
# “And” between values parts separate entries of the source, which are not always exact repeats. Identical values can stand only once.
# Columns and labels:
# [1] = biological target: insertion protein gp34 of siphophage T1 (phage T1 (ATCC 11303-B1)); assay: cryo-EM structure; tail tip of purified mature T1 virions (laboratory-adapted, no lateral fibers); 6.1 Å, after local refinement 4.3 Å, threefold symmetry imposed
# [2] = biological target: cement protein (CP) gp48 of siphophage T1 (phage T1 (ATCC 11303-B1)); assay: cryo-EM structure; icosahedral head of purified mature T1 virions (assembled in infected E. coli) in phage buffer (50 mM NaCl, 10 mM MgCl2, 10 mM Tris-HCl, pH 7.6); icosahedral reconstruction 4 Å, local reconstruction of the fivefold region 3.5 Å
# [3] = biological target: cement protein (CP) gp49 of siphophage T1 (phage T1 (ATCC 11303-B1)); assay: as above
# [4] = biological target: tail tube protein (TTP) gp41 of siphophage T1 (phage T1 (ATCC 11303-B1)); assay: cryo-EM structure; tail tube of purified mature T1 virions; 4.1 Å, sixfold symmetry imposed
# [5] = biological target: distal tail protein gp37 of siphophage T1 (phage T1 (ATCC 11303-B1)); assay: cryo-EM structure; tail tip of purified mature T1 virions (laboratory-adapted, no lateral fibers); 6.1 Å, after local refinement 4.3 Å, threefold symmetry imposed
# [6] = biological target: major capsid protein (MCP) gp47 of siphophage T1 (phage T1 (ATCC 11303-B1)); assay: cryo-EM structure; icosahedral head of purified mature T1 virions (assembled in infected E. coli) in phage buffer (50 mM NaCl, 10 mM MgCl2, 10 mM Tris-HCl, pH 7.6); icosahedral reconstruction 4 Å, local reconstruction of the fivefold region 3.5 Å
# [7] = biological target: central fiber protein gp33 of siphophage T1 (phage T1 (ATCC 11303-B1)); assay: cryo-EM structure; tail tip of purified mature T1 virions (laboratory-adapted, no lateral fibers); 6.1 Å, after local refinement 4.3 Å, threefold symmetry imposed
# [8] = biological target: stopper protein gp44 of siphophage T1 (phage T1 (ATCC 11303-B1)); assay: cryo-EM structure; head-connector complex of purified mature T1 virions; asymmetric reconstruction 8 Å; local reconstruction of the portal-adaptor complex 3.6 Å (twelvefold symmetry) and of the stopper-terminator-tube complex 3.6 Å (sixfold symmetry)
# [9] = biological target: tail terminator protein gp42 of siphophage T1 (phage T1 (ATCC 11303-B1)); assay: as above
# [10] = biological target: adaptor protein gp45 of siphophage T1 (phage T1 (ATCC 11303-B1)); assay: as above
# [11] = biological target: portal protein gp52 of siphophage T1 (phage T1 (ATCC 11303-B1)); assay: as above
substance,measurement,setting,value
insertion protein gp34 of siphophage T1 (natural protein),stoichiometry N,[1],3
cement protein (CP) gp49 of siphophage T1 (natural protein),stoichiometry N (gp49 per gp48),[2],2
same,stoichiometry N,[3],3
tail tube protein (TTP) gp41 of siphophage T1 (natural protein),stoichiometry N,[4],6
distal tail protein gp37 of siphophage T1 (natural protein),stoichiometry N,[5],6
major capsid protein (MCP) gp47 of siphophage T1 (natural protein),stoichiometry N,[6],5 and 6
same,stoichiometry N (copies in the head),[6],415
central fiber protein gp33 of siphophage T1 (natural protein),stoichiometry N,[7],3
stopper protein gp44 of siphophage T1 (natural protein),stoichiometry N,[8],6
tail terminator protein gp42 of siphophage T1 (natural protein),stoichiometry N,[9],6
adaptor protein gp45 of siphophage T1 (natural protein),stoichiometry N,[10],12
portal protein gp52 of siphophage T1 (natural protein),stoichiometry N,[11],12
